Two molecules from patent CN116284368A can be followed below.

The assay deals with T1, 临床全血样本裂解液中的MxA蛋白 (human) (UniProt P20591).
T1 sequence (looked up): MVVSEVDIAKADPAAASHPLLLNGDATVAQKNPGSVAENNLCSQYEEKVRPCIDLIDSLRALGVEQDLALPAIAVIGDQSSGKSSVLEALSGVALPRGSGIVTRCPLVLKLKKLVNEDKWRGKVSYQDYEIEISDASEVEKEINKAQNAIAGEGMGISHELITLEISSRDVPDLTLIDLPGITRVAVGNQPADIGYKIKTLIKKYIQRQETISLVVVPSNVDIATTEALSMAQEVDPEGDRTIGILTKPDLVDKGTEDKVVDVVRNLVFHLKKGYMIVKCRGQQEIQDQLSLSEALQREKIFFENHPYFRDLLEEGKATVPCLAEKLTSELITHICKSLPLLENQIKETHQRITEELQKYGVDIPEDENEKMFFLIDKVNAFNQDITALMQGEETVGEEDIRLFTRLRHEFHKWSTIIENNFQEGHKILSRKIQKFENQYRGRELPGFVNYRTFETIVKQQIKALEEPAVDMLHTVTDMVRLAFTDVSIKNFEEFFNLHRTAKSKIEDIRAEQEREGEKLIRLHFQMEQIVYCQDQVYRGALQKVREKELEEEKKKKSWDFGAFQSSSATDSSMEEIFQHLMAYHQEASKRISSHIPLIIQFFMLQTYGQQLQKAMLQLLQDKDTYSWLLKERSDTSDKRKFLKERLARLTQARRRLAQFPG
Put plainly: sandwich ELISA on clinical whole-blood lysates, antibody A coated (capture), antibody B-HRP detection. A general note: In an ELISA, binding on a coated surface is turned into a signal by an enzyme label.

Where only a bound is given, the exact number is not on record here.

B1: 抗体B (MxA-B抗体) (antibody, V domains shown)
VH: QVQLQQSGAELARPGASVKLSCKASGYTFTSYWILWLKQRPGQGLEWIGAVYPGDGDTRYTQKFKGKATLTADKSSSTAYMQLSSLASEDSAVYYCARGYDNSFDYWGQGTTLTVSS
VL: DVLMTQTPLSLPVSLGDQASISCRTSQTIVHSNGNTYLEWYLQKPGQSPKLLIYKVSNRFSGVPDRFSGSGSGTDFTLKISRVEAEDLGVYYCFQGSHVPPTFGAGTKLELK
In the case of B1, the OD450 is > 0.6 OD450.

B2: 抗体A (MxA-A抗体) (antibody, V domains shown)
VH: EVQLVETGGGLVQPKGSLIVSCAASGFTFNRSAMNWVRQAPGKGLEWVARIRTKSNNYATYYADSVKDRFTISRDDSQSMLYLQMNNLKTEDTAMYYCVGGSDFAYWGQGTLVTVSA
VL: DIQMTQTTSSLSASLGDRVTISCRASQDISNYLNWFQQKPDGTVKLLIYYTSRLYSGVPSRFSGSGSGTDYSLTITNLEQEDIATYFCQQGNTLPLTFGAGTKLELK
As to B2, the OD450 is > 0.6 OD450.
